# Experimental data reported in PMC5271678.
# Tested on: GST-CELF1 (recombinant human CELF1) (Homo sapiens)
# Experiment: EMSA
# Conditions: 3 fmol RNA with increasing GST-hCELF1, 5% native polyacrylamide gel; buffer, salt, pH and temperature not given (cited ref 31)
row,Substance,Kd [nM]
1,Srp9 3'UTR fragment,0.84
2,Srp19 3'UTR fragment,33.8
3,Srp54 3'UTR fragment,13.5
4,Srp14 3'UTR fragment,12.4
5,Srp68 3'UTR fragment,1.64
6,Srp72 3'UTR fragment,0.53
7,7SL RNA fragment (negative control),> 300
